Results: the supplement of paper PMC7877785
± gives the uncertainty stated by the source.

Test: self-splicing fitness, log relative to wild type (ln ratio); higher = more splicing; Tetrahymena group I intron in knt gene, E. coli kanamycin selection, DiMSum; sequences stand for … in CUCUCU…GGAGGGAAAAGUUAUCAGGCAUGCACCUGGUAGCUAGUCUUUAAACCAAUAGAUUGCAUCGGUUUAAAAGGCAAGACCGUCAAAUUGCGGGAAAGGGGUCAACAGCCGUUCAGUACCAAGUCUCAGGGGAAACUUUGAGAUGGCCUUGCAAAGGGUAUGGUAAUAAGCUGACGGACAUGGUCCUAACCACGCAGCCAAGUCCUAAGUCAACAGAUCUUCUGUUGAUAUGGAUGCAGUUCACAGACUAAAUGUCGGUCGGGGAAGAUGUAUUCUUCUCAUAAGAUAUAGUCGGACCUCUCCUUAAUGGGAGCUAGCGGAUGAAGUGAUGCAACACUGGAGCCGCUGGGAACUAAUUUGUAUGCGAAAGUAUAUUGAUUAGUUUUGGAGUACUCGUGGUCG
How it was run: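 Pooled colonies went to amplicon sequencing on an Illumina HiSeq 2500 after six replicate transformations. The plates were LB agar with 100 μg/mL carbenicillin, 50 μM IPTG and 0.2% rhamnose, with or without 25 μg/mL kanamycin, incubated overnight at 37°C or 30°C. The E. coli BL21(DE3) library had all eight P1ex-region intron nucleotides randomised, the intron placed in the knt kanamycin-resistance gene on pET-22b(+). DiMSum fitness is the error-weighted combination of replicate fold changes, kanamycin against none, normalised to wild type.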

Sequence | self-splicing fitness (ln) (30 °C) | self-splicing fitness (ln) (37 °C)
UUAAAGCAAUAUUACGUGGU | -3.26 ± 0.12 | -2.73 ± 0.15
CUAAAGCAAUAUUACGAGCG | 0.136 ± 0.057 | 0.289 ± 0.073
ACUGAGCAAUAUUACGCGCG | -1.14 ± 0.11 | -0.367 ± 0.12
CGCCAGCAAUAUUACGUAGC | -2.36 ± 0.17 | -3.11 ± 0.33
GCUUAGCAAUAUUACGAAGU | -3.26 ± 0.21 | -2.27 ± 0.21
CCCAAGCAAUAUUACGGGGU | -3.46 ± 0.12 | -2.35 ± 0.16
UAUUAGCAAUAUUACGGAUG | -0.629 ± 0.09 | -0.294 ± 0.12
UUUCAGCAAUAUUACGGCUA | 0.189 ± 0.14 | 0.336 ± 0.12
ACGGAGCAAUAUUACGCGUU | – | -1.9 ± 0.21
CACUAGCAAUAUUACGUGUA | -2 ± 0.11 | -1.47 ± 0.12
AUGUAGCAAUAUUACGCUAU | -3.81 ± 0.23 | -2.6 ± 0.23
GCUCAGCAAUAUUACGAACA | -0.688 ± 0.088 | -0.676 ± 0.1
AGAAAGCAAUAUUACGGCGC | -0.688 ± 0.12 | -1.01 ± 0.15
GGAGAGCAAUAUUACGGUAC | -3.27 ± 0.5 | -2.07 ± 0.24
CAGCAGCAAUAUUACGCGAC | -2.71 ± 0.39 | -0.925 ± 0.25
GUCGAGCAAUAUUACGAACA | -1.67 ± 0.37 | -0.344 ± 0.29
CCUUAGCAAUAUUACGGGUA | -2.65 ± 0.19 | -2.38 ± 0.26
CCACAGCAAUAUUACGUGGG | -3.56 ± 0.14 | -3.13 ± 0.18
CGUGAGCAAUAUUACGCCUG | -1.76 ± 0.26 | -0.852 ± 0.36
GUCCAGCAAUAUUACGCCUU | -0.571 ± 0.1 | -0.309 ± 0.11
GAGGAGCAAUAUUACGCCAU | -3.46 ± 0.47 | -2.37 ± 0.41
AUUGAGCAAUAUUACGGUAC | – | -1.72 ± 0.31
AGCGAGCAAUAUUACGACUU | -0.736 ± 0.078 | 0.37 ± 0.1
AAUCAGCAAUAUUACGCAAA | -0.0279 ± 0.067 | -0.117 ± 0.078
UUAGAGCAAUAUUACGCACC | -3.79 ± 0.33 | -2.04 ± 0.4

Sequence | self-splicing fitness (ln) (30 °C) | self-splicing fitness (ln) (37 °C)
AACUAGCAAUAUUACGGCAC | -0.766 ± 0.079 | -0.192 ± 0.11
UGGUAGCAAUAUUACGCGAU | -2.54 ± 0.28 | -0.974 ± 0.26
CCGGAGCAAUAUUACGUAUG | -1.41 ± 0.071 | -0.561 ± 0.083
GAGUAGCAAUAUUACGGAUC | -0.928 ± 0.092 | -0.167 ± 0.12
GGGGAGCAAUAUUACGUCCA | -0.767 ± 0.12 | -0.145 ± 0.22
ACGGAGCAAUAUUACGACCU | -1.69 ± 0.2 | -1.34 ± 0.25
GCCUAGCAAUAUUACGUGAG | -1.21 ± 0.085 | -0.757 ± 0.091
UCAUAGCAAUAUUACGUUCA | -1.73 ± 0.1 | -1.57 ± 0.1
CAGCAGCAAUAUUACGCCCG | 0.0522 ± 0.12 | 0.33 ± 0.12
AUCAAGCAAUAUUACGGUAC | -3.8 ± 0.23 | -0.246 ± 0.12
AGUCAGCAAUAUUACGGUAG | -3.46 ± 0.15 | -2.76 ± 0.21
CUCGAGCAAUAUUACGUGUG | -2.74 ± 0.12 | -1.27 ± 0.095
GGUCAGCAAUAUUACGGCAC | -0.775 ± 0.13 | 0.566 ± 0.16
GGCAAGCAAUAUUACGGAAU | -0.693 ± 0.075 | -0.506 ± 0.1
CAUGAGCAAUAUUACGUUGA | -2.92 ± 0.18 | -3.4 ± 0.29
GUUGAGCAAUAUUACGCUCC | -1.81 ± 0.48 | –
CACAAGCAAUAUUACGAGUA | -1.9 ± 0.085 | -0.487 ± 0.078
GUAAAGCAAUAUUACGAAAG | -2.91 ± 0.19 | -1.33 ± 0.19
CCAGAGCAAUAUUACGUUCG | -2.91 ± 0.17 | -1.64 ± 0.17
UUAAAGCAAUAUUACGGUCU | -0.805 ± 0.074 | -0.3 ± 0.098
GUCCAGCAAUAUUACGUACA | -1.73 ± 0.1 | -0.367 ± 0.1
GACCAGCAAUAUUACGGUCC | -2.95 ± 0.17 | –
UGAUAGCAAUAUUACGAACG | -0.462 ± 0.15 | -0.0562 ± 0.2
GAAAAGCAAUAUUACGUAGA | -0.772 ± 0.076 | -1.77 ± 0.13
CCCUAGCAAUAUUACGCAAG | -3.65 ± 0.28 | -2.06 ± 0.23

Sequence | self-splicing fitness (ln) (30 °C) | self-splicing fitness (ln) (37 °C)
GUAGAGCAAUAUUACGCAAA | -2.21 ± 0.16 | -1.59 ± 0.17
UGUGAGCAAUAUUACGAUGU | -3.05 ± 0.18 | -2.08 ± 0.24
CUGUAGCAAUAUUACGGCUU | -3.72 ± 0.25 | -2.86 ± 0.3
UGCAAGCAAUAUUACGAGUC | -2.87 ± 0.15 | -1.83 ± 0.14
UUUCAGCAAUAUUACGACUG | -2.89 ± 0.2 | -1.53 ± 0.18
AGGAAGCAAUAUUACGUUGA | – | -1.63 ± 0.46
UGAGAGCAAUAUUACGUAUG | -1.55 ± 0.13 | -1.66 ± 0.22
CUGCAGCAAUAUUACGGUAG | -3.65 ± 0.1 | -2.45 ± 0.11
CGAUAGCAAUAUUACGUGUU | -4.25 ± 0.14 | -2.3 ± 0.1
CCAAAGCAAUAUUACGAACC | -3.78 ± 0.47 | -1.5 ± 0.34
CACCAGCAAUAUUACGUUGU | -3.58 ± 0.14 | -2.29 ± 0.14
CCCUAGCAAUAUUACGCAGC | -3 ± 0.17 | -3.24 ± 0.35
AUGCAGCAAUAUUACGCCUA | -0.128 ± 0.1 | -0.513 ± 0.12
UCCUAGCAAUAUUACGACGC | -2.35 ± 0.17 | -2.02 ± 0.2
ACUCAGCAAUAUUACGGCAA | -1.24 ± 0.094 | -0.795 ± 0.099
ACACAGCAAUAUUACGUGUU | -3.16 ± 0.073 | -3.62 ± 0.16
CACAAGCAAUAUUACGGAGA | -3.31 ± 0.17 | -2.65 ± 0.2
UCAGAGCAAUAUUACGGGAG | -2.82 ± 0.21 | -2.14 ± 0.34
CAUCAGCAAUAUUACGCUCA | -1.55 ± 0.18 | -0.924 ± 0.16
ACUAAGCAAUAUUACGACUU | -0.429 ± 0.093 | 0.924 ± 0.12
CUACAGCAAUAUUACGAUGC | -3.88 ± 0.39 | -2.81 ± 0.2
AGGAAGCAAUAUUACGAUCU | -0.809 ± 0.085 | -0.905 ± 0.11
AAGGAGCAAUAUUACGUCCA | -1.29 ± 0.16 | -0.459 ± 0.16
CUAAAGCAAUAUUACGAUUG | -0.545 ± 0.053 | -0.596 ± 0.06
CCAGAGCAAUAUUACGCUCG | -2.32 ± 0.28 | -1.95 ± 0.38

Sequence | self-splicing fitness (ln) (30 °C) | self-splicing fitness (ln) (37 °C)
AGACAGCAAUAUUACGAUGA | -2.02 ± 0.12 | -0.531 ± 0.094
AGAUAGCAAUAUUACGUAAU | -1.52 ± 0.11 | -0.657 ± 0.12
GCAGAGCAAUAUUACGAGAC | -3.42 ± 0.21 | -2.03 ± 0.12
UAUGAGCAAUAUUACGUUUA | -2.59 ± 0.24 | -1.94 ± 0.14
CUUAAGCAAUAUUACGCUUA | -3.39 ± 0.32 | -1.58 ± 0.2
GUCAAGCAAUAUUACGGGCC | -3.75 ± 0.27 | -2.77 ± 0.31
CAUGAGCAAUAUUACGACAG | -1.89 ± 0.13 | -1.02 ± 0.15
GUACAGCAAUAUUACGAUCC | -0.427 ± 0.14 | 0.81 ± 0.18
GUCGAGCAAUAUUACGGGUU | -3.03 ± 0.2 | -1.04 ± 0.16
UUUAAGCAAUAUUACGUCUU | -2.57 ± 0.15 | -1.81 ± 0.16
GACAAGCAAUAUUACGCACG | -2.2 ± 0.13 | -1.07 ± 0.17
CUAUAGCAAUAUUACGUCUU | -4.3 ± 0.32 | -2.76 ± 0.23
UGGGAGCAAUAUUACGCACA | -0.967 ± 0.35 | 0.399 ± 0.35
CAAAAGCAAUAUUACGUGAG | -1.06 ± 0.04 | -0.328 ± 0.069
CGAAAGCAAUAUUACGCGCU | -2.08 ± 0.13 | -1.6 ± 0.12
UAGGAGCAAUAUUACGCUUA | -1.49 ± 0.18 | -0.834 ± 0.27
AAAGAGCAAUAUUACGCCCU | -2.57 ± 0.21 | -0.718 ± 0.17
UACUAGCAAUAUUACGGGGA | -1.37 ± 0.14 | -0.992 ± 0.12
AAGUAGCAAUAUUACGCGUC | -1.96 ± 0.12 | -2 ± 0.19
GUGGAGCAAUAUUACGUCGA | -3.42 ± 0.37 | -1.48 ± 0.3
CAUUAGCAAUAUUACGGCCA | -2.3 ± 0.28 | –
ACUCAGCAAUAUUACGACCC | -0.845 ± 0.19 | -2.22 ± 0.22
